Reference: patent publication US20230201357, “D-DIMER-SPECIFIC APTAMERS AND METHODS OF USE IN DIAGNOSTICS, THERAPEUTIC AND THERANOSTIC PURPOSES” (APTAMER DIAGNOSTIC, INC., published 2023)

Experiments:
[1] = molecular target: T1, D-dimer (cross-linked fibrin degradation product) (Homo sapiens, UniProt P02671;P02675;P02679 SEQ:1-87,SEQ:1-328,SEQ:1-324); test: ELONA; 25 nM; settings: tags: none stated; about 180 kDa; chain copies: 2 of each chain (inferred); label: biotin (5' or 3')
Experimental: (§1) 25 nM of either 3′ Bioitnilated ADI1701, Truncation 1, Truncation 2, Truncation 3, Truncation 4, Truncation 5, scrambled sequence 1, scrambled sequence 2 and scrambled sequence 3 was incubated with D-Dimer protein immobilized on a 96 well ELISA plate. As a control, 3′ Biotin-ADI1701 was incubated with fibrinogen or two plasma samples from donors with low D-Dimer levels (<200 ng/ml) immobilized on the plate. Absorbance was measured after incubation with streptavidin horse radish peroxidase bound to the biotinylated aptamer in the presence of the substrate 3,3′,5,5′-Tetramethylbenzidine (TMB). […] Deleting three or five bases from the 5′ end of ADI1701 decreased the binding to D-dimer by 33%. […] The values shown are subtracted from the absorbance measured in the presence of albumin that was used as the blank.
(§2) Various truncations were made to the 3′ Biotinylated-ADI1701 aptamer from the 5′ and 3′-ends. Deleting as little as 3 bases from the 5′-end or 5 bases from the 3′-end affected the binding of ADI1701 to D-dimer (FIG. 7). Again, none of the scrambled sequences with Biotin label on either the 5′ or 3′-ends presented any binding to D-dimer.

[2] = molecular target: T1, D-dimer (cross-linked fibrin …); test: SPR; SPRi, biotinylated aptamer on streptavidin gold, 10 nM D-dimer in flow; ka 2.0e6, kd 0.0048 per s; settings: tags: none stated; about 180 kDa; chain copies: 2 of each chain (inferred); label: 3' biotin
Experimental: Interaction between ADI1701 and D-dimer was analyzed by a SPR device, Openplex SPRi system from Horiba Scientific. Various amounts of ADI1701 (5 fmol, 50 fmmol and 500 fmol) were immobilized on a gold sensor chip, and D-dimer (10 nM) was injected to the flow cell, and ScrubberGen Ver. 2.0g software was used to subtract the references. […] Nonspecific binding of D-dimer to ADI1701scram was subtracted at the respective concentrations.
Further studies on the specificity and affinity of binding of ADI1701 to D-dimer were performed using Surface plasmon resonance (SPR). SPR has become an important optical bio-sensing technology in the areas of biochemistry, biology, and medical sciences because of its real-time, label-free, and noninvasive nature. Various amounts of biotinylated ADI1701 were immobilized on streptavidin coated gold surface and D-dimer to flow through. It is shown herein that ADI1701 binds directly to D-Dimer (FIG. 8).

Fibrinogen [3] = molecular target: T2, Fibrinogen (UniProt P02671-2;P02675;P02679-2 P02671-2:20-644,P02675:31-491,P02679-2:27-437); test: ELONA; 25 nM aptamer, immobilized fibrinogen; low D-dimer plasma also negative; settings: chain copies: 2; label: 3' biotin
Experimental: as §1, §2

Bovine serum albumin = Bovine serum albumin (Bos taurus, UniProt P02769 P02769:25-607); test: latex bead agglutination, no agglutination at highest BSA amount
Experimental: (§3) FIGS. 10A and 10B show photomicrographs of Latex-Aptamer Beads at Different Preparations and at Two Extreme Levels of D-Dimer Concentration. […] The well concentration of the proteins are (serial dilution from left to right, per 150 uL total well volume): 10 nM, 5 nM, 2.5 nM and 1.25 nM of D-Dimer; 10 nM, 5 nM, 2.5 nM and 1.25 nM of Fibrinogen; 750 nM, 375 nM, 188 nM and 94 nM of the BSA. (Ref: NB3, p 19-20, Aug. 29, 2017). 50 ul of aptamer conjugated to the latex beads were added to each well.
(§4) FIG. 10 represents an image of the wells section of a 96-well plate with the initial testing of coagulation.

[4] = molecular target: T1, D-dimer (cross-linked fibrin …); test: latex bead agglutination; seen at lower concentration than with fibrinogen; settings: tags: none stated; about 180 kDa; chain copies: 2 of each chain (inferred)
Experimental: as §3, §4

[5] = molecular target: T1, D-dimer (cross-linked fibrin …); test: ELONA; estimated from saturation curve; text says 5' biotin, FIG. 6 legend says 3' biotin; settings: tags: none stated; about 180 kDa; chain copies: 2 of each chain (inferred); label: 5' biotin
Fibrinogen [6] = molecular target: T2, Fibrinogen; test: EMSA; native PAGE, no band overlapping fibrinogen; settings: chain copies: 2

T1 sequence (P02671 130-216, chain 1 of 3): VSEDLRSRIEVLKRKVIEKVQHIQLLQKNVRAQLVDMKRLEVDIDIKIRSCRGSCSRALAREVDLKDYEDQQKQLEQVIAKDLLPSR
T1 sequence (P02675 164-491, chain 2 of 3): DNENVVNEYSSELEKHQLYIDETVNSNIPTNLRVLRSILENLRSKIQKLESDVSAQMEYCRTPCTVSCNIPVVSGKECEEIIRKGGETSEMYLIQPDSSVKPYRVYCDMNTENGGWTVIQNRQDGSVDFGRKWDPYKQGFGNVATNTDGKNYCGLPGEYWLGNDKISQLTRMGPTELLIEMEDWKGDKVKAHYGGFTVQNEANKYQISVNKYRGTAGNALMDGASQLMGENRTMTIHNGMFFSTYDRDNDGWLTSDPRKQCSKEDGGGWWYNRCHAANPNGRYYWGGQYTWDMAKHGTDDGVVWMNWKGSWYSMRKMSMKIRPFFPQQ
T1 sequence (P02679 other isoform, or with tags, fused parts or gaps, chain 3 of 3): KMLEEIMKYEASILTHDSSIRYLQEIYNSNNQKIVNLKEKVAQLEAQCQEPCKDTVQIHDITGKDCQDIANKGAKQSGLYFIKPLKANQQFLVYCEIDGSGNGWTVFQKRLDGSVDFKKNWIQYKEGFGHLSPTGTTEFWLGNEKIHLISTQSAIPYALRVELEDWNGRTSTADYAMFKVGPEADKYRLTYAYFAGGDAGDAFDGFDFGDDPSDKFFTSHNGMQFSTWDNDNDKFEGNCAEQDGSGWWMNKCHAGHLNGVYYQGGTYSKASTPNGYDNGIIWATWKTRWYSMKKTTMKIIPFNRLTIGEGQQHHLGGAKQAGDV
T2 sequence (P02671 other isoform, or with tags, fused parts or gaps, chain 1 of 3): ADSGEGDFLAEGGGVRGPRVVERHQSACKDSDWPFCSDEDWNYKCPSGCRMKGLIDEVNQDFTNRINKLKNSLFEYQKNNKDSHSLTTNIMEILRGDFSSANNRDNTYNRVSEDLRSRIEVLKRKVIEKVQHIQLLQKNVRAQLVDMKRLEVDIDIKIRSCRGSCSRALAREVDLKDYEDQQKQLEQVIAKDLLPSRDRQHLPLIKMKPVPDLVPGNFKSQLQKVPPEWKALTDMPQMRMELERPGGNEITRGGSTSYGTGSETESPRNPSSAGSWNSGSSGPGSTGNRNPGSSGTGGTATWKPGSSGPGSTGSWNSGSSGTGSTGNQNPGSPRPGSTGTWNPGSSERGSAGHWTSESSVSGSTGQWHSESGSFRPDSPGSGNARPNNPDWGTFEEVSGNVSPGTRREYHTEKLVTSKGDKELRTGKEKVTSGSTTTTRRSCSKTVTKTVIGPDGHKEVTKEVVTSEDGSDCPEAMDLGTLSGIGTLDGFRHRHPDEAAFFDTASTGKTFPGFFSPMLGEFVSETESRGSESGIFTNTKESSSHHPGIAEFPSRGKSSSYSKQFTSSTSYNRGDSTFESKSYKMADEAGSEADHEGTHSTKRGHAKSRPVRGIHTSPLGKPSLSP
T2 sequence (P02675 31-491, chain 2 of 3): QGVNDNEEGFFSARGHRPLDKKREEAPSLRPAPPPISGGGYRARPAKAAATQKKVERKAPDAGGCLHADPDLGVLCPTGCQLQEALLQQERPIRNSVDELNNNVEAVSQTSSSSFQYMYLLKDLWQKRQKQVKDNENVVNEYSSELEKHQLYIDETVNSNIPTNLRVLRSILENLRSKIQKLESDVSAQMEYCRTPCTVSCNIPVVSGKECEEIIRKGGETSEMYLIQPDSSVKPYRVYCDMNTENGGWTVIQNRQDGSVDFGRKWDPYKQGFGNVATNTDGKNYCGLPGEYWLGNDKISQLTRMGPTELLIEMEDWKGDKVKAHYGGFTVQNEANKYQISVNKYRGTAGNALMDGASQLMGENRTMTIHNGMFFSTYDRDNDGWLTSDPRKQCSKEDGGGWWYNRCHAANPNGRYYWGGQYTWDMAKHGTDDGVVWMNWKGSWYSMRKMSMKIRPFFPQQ
T2 sequence (P02679 other isoform, or with tags, fused parts or gaps, chain 3 of 3): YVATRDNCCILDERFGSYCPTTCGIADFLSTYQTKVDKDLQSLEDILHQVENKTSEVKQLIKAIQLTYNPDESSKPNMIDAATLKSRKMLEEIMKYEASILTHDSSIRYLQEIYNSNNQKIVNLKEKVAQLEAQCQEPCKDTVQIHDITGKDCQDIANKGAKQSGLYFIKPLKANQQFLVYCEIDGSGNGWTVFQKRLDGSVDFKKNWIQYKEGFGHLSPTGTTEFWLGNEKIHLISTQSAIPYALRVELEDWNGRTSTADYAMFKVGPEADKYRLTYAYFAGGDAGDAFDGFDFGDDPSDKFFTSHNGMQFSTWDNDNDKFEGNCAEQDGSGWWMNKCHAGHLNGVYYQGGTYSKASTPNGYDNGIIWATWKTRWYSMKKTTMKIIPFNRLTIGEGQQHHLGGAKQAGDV
Bovine serum albumin, sequence (P02769 25-607, one chain of several): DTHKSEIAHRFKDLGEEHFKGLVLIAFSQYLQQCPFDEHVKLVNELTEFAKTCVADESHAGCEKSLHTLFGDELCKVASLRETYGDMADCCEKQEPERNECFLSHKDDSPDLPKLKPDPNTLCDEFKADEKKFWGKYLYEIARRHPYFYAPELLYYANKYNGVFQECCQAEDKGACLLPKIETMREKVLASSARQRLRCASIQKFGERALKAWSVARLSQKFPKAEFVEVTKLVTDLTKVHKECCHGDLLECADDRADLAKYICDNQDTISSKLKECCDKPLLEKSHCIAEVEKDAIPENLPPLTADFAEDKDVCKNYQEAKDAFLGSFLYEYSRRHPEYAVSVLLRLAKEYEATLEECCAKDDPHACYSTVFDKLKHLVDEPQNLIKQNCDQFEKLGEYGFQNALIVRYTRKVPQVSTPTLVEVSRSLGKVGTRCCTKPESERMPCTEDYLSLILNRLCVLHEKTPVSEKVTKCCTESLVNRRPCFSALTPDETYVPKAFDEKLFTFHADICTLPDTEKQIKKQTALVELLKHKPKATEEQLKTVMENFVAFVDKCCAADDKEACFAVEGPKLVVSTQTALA

TTGTTAGATACTCGCTCTCATCCGCCGTACAACTGGCCAG (ssDNA) [Scrambled Sequence 1]
binding result [1]: no binding

ACTACCGATGCGGACTTATCCGCACGTACCGCTATTGTAG (ssDNA) [Scrambled Sequence 2]
binding result [1]: no binding

GCGCGGTCCCGATTTGGTGTAAAATTCCCTCAGCCCTACA (ssDNA) [3'Biotin-ADI1701]
Kd [2]: 2.5 nM | binding result (Fibrinogen [3]): no binding

GCGCGGTCCCGATTTGGTGTAAAATTCCCTCAGCCCTACA (ssDNA, NH2-C6 linker, latex conjugate) [ADI1701-latex (NH2-C6-ADI1701 coupled to beads)]
binding result (Bovine serum albumin): no binding | binding result [4]: binds

GCGCGGTCCCGATTTGGTGTAAAATTCCCTCAGCCCTACA (ssDNA) [5'Biotin-ADI1701]
Kd [5]: ~10 nM

GCGCGGTCCCGATTTGGTGTAAAATTCCCTCAGCCCTACA (ssDNA) [ADI1701]
binding result (Fibrinogen [6]): no binding
